In the supplement of paper PMC10567573:

B1: PRKX (parent)
chain: KLLVVDRTRRLGNMKNGANDVKHH
B2: SLC2A12 (parent)
chain: TRIMIGLTLVFFVQITGQPNILFY

Variants of: B1
Experiment: protein stability index of a GFP-peptide fusion (GPS, HEK-293T) (PSI 1-6); higher = more stable
Conditions: c terminus: a fixed tail appended
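Also: lentivirally expressed fusions sorted by FACS into six bins by GFP to DsRed ratio, PSI derived from sequencing read proportions per bin multiplied by bin number.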

Protein stability index: each site, then its substitutions
L2: P 4.29, K 3.99, E 5.03, W 2.87, H 3.68, I 2.99, Y 3.04, V 3.52, M 3.5, N 4.03, Q 4.39, R 3.69, C 3.57, A 3.84, G 4.1, T 3.61, S 4.13, D 4.03, F 3.22
V4: P 3.87, R 2.86, T 3.4, H 3.62, G 3.32, C 3.17, M 2.57, S 3.65, I 2.46, A 3.31, K 2.7, E 3.46, W 2.66, F 2.61, L 3, N 3.6, D 3.77, Y 3.32, Q 3.19
D6: C 2.01, A 2.19, E 2.94
L3: S 4.29, H 4, N 3.62, F 2.72, Q 3.68, E 4.33, D 4.38, M 3.66, T 4.16, Y 2.69, R 3.87, C 3.74, G 3.93, P 3.72, K 3.55, I 3.31, V 2.86, W 3.29, A 3.92
K1: D 3.82, C 1.85, P 3.63, Y 2.29, R 2.52, E 2.94, W 1.55, S 3.51, F 1.44, G 3.38, N 3.45, H 2.98, Q 3.37, A 2.33, T 3.45, M 1.85, V 1.82, L 1.86, I 1.78
V5: Y 2.61, G 3.32, I 2.33, K 3.56, T 3.67, P 3.62, D 4.07, A 3.74, N 3.3, S 3.62, W 2.33, C 3.72, R 3.31, E 4.08, Q 3.11, H 3.41, M 2.95, L 2.6, F 2.65

Variants of: B2
Experiment: as above
Conditions: c terminus: a fixed tail appended

Protein stability index: each site, then its substitutions
F23: G 3.83, H 2.96, V 2.56, D 2.29, E 3.67, Y 3.75, C 2.54, M 2.94, P 3.99, L 3.52, S 2.97, I 3.73, T 2.38, K 3.29, A 3.26
I21: F 3.31, Y 2.98, Q 2.1, V 2.5, N 2.52, E 3.88, S 4.17, W 3.64, R 2.73, T 3.91, P 3.17, D 3.69, C 2.42, G 4.22, A 2.81, M 1.89, H 2.49, L 2.73
Y24: N 2.88, F 5.58, G 2.83, H 2.29, T 3.56, Q 2.06, I 3.33, C 3.19, W 2.69, R 3.44, E 3.1, P 3.53, A 3.48, M 4.11, V 4.22, S 2.89
L22: F 2.79, M 2.97, E 3.11, H 2.65, C 3.96, S 3.01, N 3.01, W 2.65, Q 1.83, D 3.15, I 1.48, K 1.94
N20: R 2.67, T 2.22, P 3.22, V 2.81, M 3.84, Q 2.61, S 2.15, Y 2.54
